From the supplement of paper PMC12764529
± gives the half width of the 95% confidence interval.

Assays:
[1] = folding stability dG unfold (combined trypsin and chymotrypsin); higher = more stable
In short: (§1)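 Digests were run with trypsin and chymotrypsin at 11 concentrations in threefold dilutions, plus a no-protease condition, on designed mini-proteins in a PA-tagged cDNA display construct. The mini-proteins were under 80 residues, had no cysteine, and were kept only when AlphaFold2 dimer inter-PAE was above 15. After sequencing, Bayesian fitting of the counts gave K50, from which unfolding free energy was derived against a sequence-predicted unfolded-state K50 and a shared folded-state K50, per protease or combined.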

[2] = folding stability dG unfold from chymotrypsin proteolysis; higher = more stable
In short: as §1

[3] = folding stability dG unfold from trypsin proteolysis; higher = more stable
In short: as §1

Row | Sequence | folding stability dG unfold [1] [kcal/mol] | folding stability dG unfold [2] [kcal/mol] | folding stability dG unfold [3] [kcal/mol]
1 | SAGGKTLVITVEAPPEDWDKILELAREALELGGDVVVVAPFPDGLTVTVRAEKPLGKIVEVTVAPDDASAGG [r13_873_TrMRF] | 1.15 ± 0.095 | 1.5 ± 0.071 | 0.578 ± 0.053
2 | SAGGKTVTTPEQILELIKENPGKTYTITITVPKENQKKVEELKKALEEAGLTVEENENGTLTVTIKPSAGGS [r16_335_TrROS_Hall] | 3.42 ± 0.28 | 3.89 ± 0.14 | 2.2 ± 0.17
3 | SAGGKVFTPEHLEELLKNVPADDPNATLTVTVEVPVVVLPTTDGDDNPLPAAAAPATVTLPITVLPASAGGS [r16_708_TrMRF] | 0.837 ± 0.07 | 1.2 ± 0.018 | 0.0702 ± 0.072
4 | SAGGKVKIVKIEIEEVDGKLKIRIVVEVDTPEDLEALKKAGVKKLKVEKRRLPNGRLLVVIEVEVEVKSAGG [r13_506_TrROS_Hall] | 3.42 ± 0.062 | 3.86 ± 0.074 | 2.46 ± 0.077
5 | SAGGKVKVVEIRYFPGTNTVEILVEDPGPYLATIRIPAAPDAPIEIDEDANFRVPDAPVVLGEVRPPSAGGS [r16_515_TrMRF] | 1.09 ± 0.072 | 0.843 ± 0.12 | 1.19 ± 0.027
6 | SAGGKVVVVPFPGPVTPETVAALAAKFIEEGLYDVPLVVVSEVEGRRPDGRPGRRRFGFVYVAKAPKSAGGS [r16_44_TrMRF] | 1.59 ± 0.1 | 1.98 ± 0.13 | 1.23 ± 0.051
7 | SAGGKVYRLPDGTRVLEVEVDGELYRLVVRRPDGEELVLEFESREEALEAAKALAEAGWEIVAVERVPSAGG [r13_727_TrROS_Hall] | 0.86 ± 0.06 | 0.807 ± 0.062 | 0.787 ± 0.038
8 | SAGGKVYYIEIPPELLEAFPDLVVEPVEQPEDFVVAPVFLSDKVLLVPIRVFSEDGKELFDFTLTSNPSAGG [r13_129_TrMRF] | 1.62 ± 0.037 | 1.77 ± 0.024 | 1.18 ± 0.027
9 | SAGGKYEYDPDNGYYRDEDGKMYYPMPPQIPPIEIPIPINLPNGQKLNIPVEFRTIEDALDALKKFFSAGGS [r8_440_TrROS] | 1.01 ± 0.14 | 1.13 ± 0.091 | 0.697 ± 0.033
10 | SAGGKYKIVEITIKVEPGQSPEEIAAEIAKKLAPPGEKVKVKVEKKDGYLRIYIINEETGEVVEEFELSAGG [r13_724_TrROS_Hall] | 1.88 ± 0.14 | 1.91 ± 0.06 | 1.66 ± 0.051
11 | SAGGLAPVYKTEDGVYLITPYNPETGELLETIPISEEDIEELSKEYGRDLTIEEIVKKLGYETEITVASAGG [r13_836_TrMRF] | 0.969 ± 0.06 | 0.99 ± 0.03 | 0.786 ± 0.057
12 | SAGGLDPDGKIRWQPITITIEIPIPPGDEELANKIADWLRDLGIEVEIKRNPNGYIQITVEFWVLVIDSAGG [r13_702_TrROS] | 4.89 ± 0.31 | 5.03 ± 0.29 | 3.82 ± 0.33
13 | SAGGLEILEVDPDTYTITIRFGDRPLEFTVPPDYPPTITITEDPDGSVTLTIEVPDRTETFTIPRELVESAG [r5_500_TrMRF] | 1.61 ± 0.083 | 1.84 ± 0.09 | 1.18 ± 0.021
14 | SAGGLIIPEEYEIVEKKAEILPDGSLRYTFILRPKSGELLLVEIRYPPDGSIEIEARRLTPEELKKALSAGG [r13_773_TrMRF] | 3.56 ± 0.074 | 3.71 ± 0.045 | 3.13 ± 0.076
15 | SAGGLKDILKELGFPIKSVTVQPMPMPNGMPMRTVSITFENPNGPKFEIEVMVMPNGEVMIDIEWVKPSAGG [r13_818_TrROS] | 2.48 ± 0.22 | 2.69 ± 0.11 | 2.23 ± 0.092
16 | SAGGLKEIAKQLGPGADKVEIEWEPQPHDDMEMYRWKIRVKNPNNGKKRKLEVSIMYDPNGNIRSIMISAGG [r13_358_TrROS] | 2.34 ± 0.14 | 2.38 ± 0.077 | 1.85 ± 0.12
17 | SAGGLKIVETKTEPEIGKRYVVIEVYKPETGKPILYVVPLDLEKGENSPEAVAKAILKELKLPPGVKASAGG [r13_362_TrMRF] | 1.24 ± 0.18 | 1.71 ± 0.16 | 0.58 ± 0.082
18 | SAGGLLVADEAGVPLSPVPPVPPIPVQVTFPDGTKVTIEYYPGLNEVKVEYEGDDPAKVAEIVKEILKSAGG [r13_701_JUSTAS] | 0.443 ± 0.13 | 0.444 ± 0.11 | 0.146 ± 0.15
19 | SAGGLNIKFEILEVYPSPNGMRMIIVRMTIEYPVPVYRRDPNGEWRPMPPGQEPVTIEIDFYIMVTPSAGGS [r16_693_TrROS] | 4.76 ± 0.18 | 5.11 ± 0.13 | 3.67 ± 0.11
20 | SAGGLPGLSAEELARRLAERLREALAAAGYTVEIELTVEITVTDEDGRTRTFTFTLRIRVEPPPPPPSAGGS [r16_550_TrROS_Hall] | 4.8 ± 0.12 | 5.15 ± 0.074 | 4.05 ± 0.069
21 | SAGGLPPGWKPIDIMVLVPPGEPLTEDQVEELAKEIARELQEKGVTIDVRVWPTDDWYFVSVDIQVPDSAGG [r13_442_TrROS] | 1.73 ± 0.18 | 1.31 ± 0.13 | 2.08 ± 0.11

Row | Sequence | folding stability dG unfold [1] [kcal/mol] | folding stability dG unfold [2] [kcal/mol] | folding stability dG unfold [3] [kcal/mol]
22 | SAGGLRVHPNSLYIWIPPGGNFDDFVKEIAQELQKKGKPMEIKVEPFPDGWYWIRIKVDGKDIEIWMSAGGS [r16_771_TrROS] | 3.02 ± 0.1 | 3.24 ± 0.039 | 2.02 ± 0.065
23 | SAGGLSYIELEVEFPGGGSFEEAKARAEKLAEEVRKKLGLKEVKIEIKKNPDGSYRVKITIKVPSKLSAGGS [r8_3_JUSTAS] | 3.02 ± 0.14 | 3.04 ± 0.077 | 2.76 ± 0.063
24 | SAGGMADEELANMSLEEVIAAVKEAGAKTVTVTFPDGSTLTIDLGDDGVVTVTLTTPPGEKETFEIPSAGGS [r8_51_TrMRF] | 2.59 ± 0.11 | 2.73 ± 0.088 | 2.34 ± 0.17
25 | SAGGMAVPVKVRDPVNGNWKTLDNIESIDEVVEVDPTDGSRSYFVKLKGSGKWYVVDDPEAVEAAKGSAGGS [r8_206_TrMRF] | 1.12 ± 0.13 | 1.08 ± 0.14 | 1.17 ± 0.064
26 | SAGGMEEIEVEFEFTLPDGRTLRLTVRVRRFDGGIVVEVDVGGEEEEEREFMEEVAREIAERIAEEESAGGS [r8_416_TrMRF] | 4.12 ± 0.093 | 4.51 ± 0.11 | 2.92 ± 0.07
27 | SAGGMEEILKKLGVKKGDKVKIKIKVEKDGKTETVEIEVPVENLEDILKKLGLSKDQVKITEIKVEKESAGG [r13_681_TrROS_Hall] | 3.4 ± 0.073 | 3.84 ± 0.1 | 2.17 ± 0.14
28 | SAGGMEEIVKALPPEAGVVEIESEPLPLEDSILRRYRLRVYNPATGKWEELEVLIEYDKDGNIRRIVASAGG [r13_358_TrMRF] | 3.6 ± 0.2 | 3.94 ± 0.051 | 2.5 ± 0.043
29 | SAGGMEEVIKELAKSLGVTKILPESEAKKLSSSVPNALAAVKLPDGSYVLIKRNSDGSVSSIKYKLESAGGS [r16_686_JUSTAS] | 1.54 ± 0.1 | 1.83 ± 0.087 | 1.14 ± 0.018
30 | SAGGMEIKVTVEKREDGYLVVTVEKAESKEEAIEAIKKELREKYPDAEITITDKDGNTIVIKLKDLKSAGGS [r8_236_TrROS_Hall] | 2.06 ± 0.067 | 2.52 ± 0.1 | 1.16 ± 0.071
31 | SAGGMEKIEIEVENEDGEKVKIEIYFDEETGFIVVKIEGENPELIDALKKKLGLEIVEKREDGYLVFKSAGG [r13_937_TrROS_Hall] | 3.48 ± 0.23 | 3.72 ± 0.13 | 3.01 ± 0.24
32 | SAGGMEKVKVRVFFIDEETGEPREVEVEATLEELRELIEKIPDKGRVLVKLELPDEERIVTLEELKERSAGG [r13_254_TrMRF] | 2.76 ± 0.15 | 3.23 ± 0.1 | 1.79 ± 0.065
33 | SAGGMELEKAIEFAKETGKEVEIEIEVEDENGKPFVIRVRVKVKPDPEDPNKYKIEVEVEVFPKEELSAGGS [r16_323_TrMRF] | 4.08 ± 0.12 | 4.38 ± 0.13 | 3.61 ± 0.19
34 | SAGGMELLGEVTVEKPGKPITFPIYRVPDEPREVVEVRELDPSTGKWTPIGTRELPPGEAERAIEELSAGGS [r8_423_JUSTAS] | 0.544 ± 0.16 | 0.573 ± 0.17 | 0.36 ± 0.08
35 | SAGGMELPPEVKTIAEKLEAEGYDVLAVPVGDSYVIAVDGKVAATPEEFEKLKKIPGVKKLITIDLPSAGGS [r16_275_TrMRF] | 0.541 ± 0.13 | 0.583 ± 0.049 | 0.432 ± 0.056
36 | SAGGMELTIPLPNGKLLKIKVEEVKAEPVLVEFELRDANGKLIDTIPAPSGFKISIRFSVEIYDPNEYSAGG [r13_848_TrMRF] | 3.61 ± 0.077 | 3.908 ± 0.032 | 2.92 ± 0.091
37 | SAGGMEPPPMLLLVIEIENEDGEKLRIVVPLEDLEEVLKALGLSKEEVRIKKIEVVPLTDEQLKELLESAGG [r13_850_TrROS_Hall] | 3.32 ± 0.28 | 3.57 ± 0.25 | 3.43 ± 0.35
38 | SAGGMETIELEIEITDEDGNTYRIRVTIERKDGKLVIKIEVEAETPEERERARELAEELARRLEEELSAGGS [r8_416_TrROS_Hall] | 4.94 ± 0.6 | 5.3 ± 0.35 | 4.1 ± 0.19
39 | SAGGMEVTFPVSPDLSPEEVRARIEAEIRPIAEARGAVDVEVPIVEYRRLPPDSVEFRFKVTVRFPRSAGGS [r8_184_JUSTAS] | 2.33 ± 0.11 | 2.4 ± 0.052 | 1.94 ± 0.089
40 | SAGGMEVVFVVGSPEVAEAFREKHPDLPFVPVSLEDYRNPAPFEAAVAAVEARGHAVRVITVPDDPESAGGS [r8_376_JUSTAS] | 0.796 ± 0.064 | 1.12 ± 0.05 | 0.0526 ± 0.14
41 | SAGGMFKGPDGNWKTYKTTKPGLTKSDIGPFVEELVEKFLKDHGLNPENVSAKAEYNPSTGTVNVYVGSAGG [r13_913_TrMRF] | 0.576 ± 0.08 | 0.783 ± 0.083 | 0.041 ± 0.039
42 | SAGGMFLRIEPEDGSRFEIPLNDPSLPLEVVVGLVSKYMDGPVKLKLTLVLPEEEVEYEYEIPLEKKSAGGS [r16_216_TrMRF] | 1.98 ± 0.098 | 2.37 ± 0.061 | 1.24 ± 0.028
